According to patent US20140147439A1 (NVIP, published 2014):

Target: T1, human complement C1q (from human serum) (human, UniProt P02745 23-245; P02746 28-253; P02747 29-245)
T1 construct: Native C1q in human serum diluted 1/100
Assay: ELISA: antibody captured on NGF-coated plate, incubated with human serum, bound C1q detected with sheep anti-C1q-HRP, absorbance at 450 nm
Protocol: The plates were washed and then incubated with human serum and bound complement C1q was measured by binding of anti-human C1q polyclonal antibody HRP and developed as above.
Plates were coated with 100 μl/well of 5 μg/ml mouse NGF and blocked with 5% BSA/PBS. […] The plates were washed and incubated for 1 hour at room temperature with 100 μl/well of human serum diluted 1/100 in veronal buffered saline containing 0.5 mM MgCl₂, 2 mM CaCl₂, 0.05% Tween-20, 0.1% gelatin and 0.5% BSA. After washing, plates were incubated with 100 μl of a 1/800 dilution of sheep anti-C1q-HRP (Serotec) in PBS/1% BSA. After washing, plates were developed by the addition of 100 μl TMB substrate (Thermo Scientific). Development was stopped by the addition of 100 μl of 2NH₂SO₄ and absorbance read at 450 nm.

T1 sequence (P02745 23-245 limits assumed, chain 1 of 3): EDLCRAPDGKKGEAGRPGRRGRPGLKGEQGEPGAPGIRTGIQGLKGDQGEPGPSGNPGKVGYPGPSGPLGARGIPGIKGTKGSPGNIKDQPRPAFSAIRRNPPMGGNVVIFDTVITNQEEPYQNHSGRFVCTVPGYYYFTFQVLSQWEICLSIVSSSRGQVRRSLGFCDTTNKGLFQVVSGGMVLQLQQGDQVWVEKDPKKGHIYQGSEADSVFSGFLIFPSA
T1 sequence (P02746 28-253 limits assumed, chain 2 of 3): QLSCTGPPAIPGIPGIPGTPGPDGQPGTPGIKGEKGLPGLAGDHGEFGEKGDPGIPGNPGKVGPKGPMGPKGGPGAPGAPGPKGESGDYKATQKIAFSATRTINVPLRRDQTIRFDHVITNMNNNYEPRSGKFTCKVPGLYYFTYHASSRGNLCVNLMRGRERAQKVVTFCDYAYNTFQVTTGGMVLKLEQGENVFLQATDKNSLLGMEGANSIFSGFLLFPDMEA
T1 sequence (P02747 29-245 limits assumed, chain 3 of 3): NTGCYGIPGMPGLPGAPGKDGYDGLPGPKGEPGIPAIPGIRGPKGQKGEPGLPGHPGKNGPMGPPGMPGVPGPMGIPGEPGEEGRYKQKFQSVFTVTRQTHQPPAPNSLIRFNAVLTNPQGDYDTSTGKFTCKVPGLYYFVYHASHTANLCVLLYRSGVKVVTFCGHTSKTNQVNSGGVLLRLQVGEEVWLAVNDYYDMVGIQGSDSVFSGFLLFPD

B1: felinised anti-NGF monoclonal antibody (heavy chain SEQ ID NO:6, light chain SEQ ID NO:5) (antibody, IgG2)
heavy: QVQLVESGGDLVQPGGSLRLTCAASGFSLTNNNVNWVRQAPGKGLEWMGGVWAGGATDYNSALKGRFTISRDNAKNTLYLQMNSLKTEDTATYYCARDGGYSSSTLYAMDAWGQGTLVTVSSASTTAPSVFPLAPSCGTTSGATVALACLVLGYFPEPVTVSWNSGALTSGVHTFPAVLQASGLYSLSSMVTVPSSRWLSDTFTCNVAHPPSNTKVDKTVRKTDHPPGPKPCDCPKCPPPEMLGGPSIFIFPPKPKDTLSISRTPEVTCLVVDLGPDDSDVQITWFVDNTQVYTAKTSPREEQFNSTYRVVSVLPILHQDWLKGKEFKCKVNSKSLPSPIERTISKAKGQPHEPQVYVLPPAQEELSRNKVSVTCLIKSFHPPDIAVEWEITGQPEPENNYRTTPPQLDSDGTYFVYSKLSVDRSHWQRGNTYTCSVSHEALHSHHTQKSLTQSPGK
light: DIVMTQTPLSLSVTPGEPASISCRASEDIYNALAWYLQKPGQSPRRLIYNTDTLHTGVPDRFSGSGSGTDFTLRISRVEADDVGVYFCQHYFHYPRTFGPGTKLEIKRSDAQPSVFLFQPSLDELHTGSASIVCILNDFYPKEVNVKWKVDGVVQTKASKESTTEQNSKDSTYSLSSTLTMSRTEYQSHEKFSCEVTHKSLASTLVKSFNRSECQRE
notes: Felinised alphaD11 variable domains with a feline HC2 (IgG2) heavy chain constant region and a feline kappa constant domain; also called felinised antibody; felinised anti-NGF MAb
Does B1 bind?
Result: no binding (tested: human serum diluted 1/100)
